The target of data set [1] is T1, SH3 domain of yeast Sho1p (yeast two-hybrid bait, pEG202-Sho1-SH3) (yeast, UniProt P40073 300-367, limits assumed).
T1 construct: domain: SH3 domain; also called Sho1p SH3 domain
Put plainly: yeast two-hybrid screen. The text has this: (§1) Degenerate oligonucleotide cassettes were made by annealing and amplifying P20 and P21 encoding a biased library designed around the Pbs2p proline rich sequence ([…]) (SEQ ID NO: 33) that interacts with the SH3 domain of Sho1p. Translation of the cassette gives X(L/V/P/A)N(K/R)PLP(P/S/A)LP(L/V/P/A)X (SEQ ID NO: 34). At the DNA level, this oligonucleotide should give rise to a library with a theoretical complexity of 98,304. The cassette was ligated into STM pJG4-5, and grown up in XL10 Gold cells (Stratagene). The midi-prepped (Qiagen) DNA was used to create a yeast library of 6×10⁴ cells in EGY48, theoretically covering 60% of the sequences encoded by the library. These cells were mated with EGY42 cells carrying pEG202-Sho1-SH3, made as described above. Interactors were selected on -UHTL/X-Gal/Gal-Raff plates for 4 days, picked and the plasmids rescued into E. coli KC8 cells. The plasmids were transformed back into EGY48 to confirm interaction with the SH3 domain of Sho1p in EGY42 using an interaction-mating matrix.

In data set [2] the target is T1, SH3 domain of yeast Sho1p (yeast …). Put plainly: yeast two-hybrid interaction mating. An excerpt:
The yeast genome encodes 25 proteins that between them comprise 28 SH3 domains. Each domain, or combination of domains, was cloned as a yeast two hybrid bait, and tested by interaction mating for its ability to recognise AptA. […] The SH3 domain of Bud14 is a self-activating bait, giving rise to a blue colour even when mated to an empty prey plasmid. […] AptA* is the mutant version of AptA where the two proline residues of the PxxP motif have been changed to alanines (PP/AA). STM is the empty scaffold.

Data set [3] concerns the molecule itself. Put plainly: gel filtration (self-association, domain-swapped dimer). The procedure:
(§2) To confirm that the engineered scaffold was correctly folded, we used gel filtration chromatography to ask whether we could detect any denatured or dimerized STM in its native form. Recombinant STM AU1 migrated close to its predicted size and similarly to wild type SteA (FIG. 3, panel A). When the protein preparations were heated to 75° C. before gel filtration, a proportion of SteA migrated as a dimer. […] The CD spectra of native SteA at 25° C. and 50° C. and native STM AU1 at 25° C. and 50° C.

Data set [4] concerns the molecule itself. The experiment in a line: SDS-PAGE after 75° C. or ice (self-association). As for the experimental part: We wished to ascertain whether we could insert peptides into STM without affecting its stability as a protein. We modelled a peptide aptamer by inserting the six residue “AU1” epitope tag (DTYRYI) (SEQ ID NO: 32) into the engineered loop. We wished to retain the thermostability of SteA but abolish its dimerization by domain-swapping, which is enhanced by heating. We incubated recombinant SteA, STM and STM AU1 at 75° C. or on ice for 20 minutes, and removed any denatured protein by centrifugation. […] As expected, this dimeric form is completely abolished in both STM and STM AU1 (FIG. 2A).

Data set [5] concerns the target T2, carboxymethylated papain on agarose beads (Calbiochem) (UniProt P00784 134-345, carboxymethylated).
T2 construct: also called immobilized papain; papain-agarose beads
T2 sequence (looked up): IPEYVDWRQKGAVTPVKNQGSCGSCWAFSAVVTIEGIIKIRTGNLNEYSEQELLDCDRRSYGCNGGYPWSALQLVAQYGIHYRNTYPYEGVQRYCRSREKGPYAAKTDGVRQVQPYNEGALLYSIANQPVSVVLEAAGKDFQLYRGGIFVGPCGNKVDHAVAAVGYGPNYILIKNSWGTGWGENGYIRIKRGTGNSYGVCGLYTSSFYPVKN
The experiment in a line: papain-agarose pull-down, western blot with anti-SteA. The procedure: Agarose beads carrying carboxymethylated papain (Calbiochem) were washed three times in EB (equilibration buffer: 50 mM sodium phosphate pH 6.5, 0.5M NaCl, 0.1% non-detergent sulfobetaines). The beads were blocked with 1 mg/ml BSA in EB for 30 mins at 4° C. and washed three more times in EB. 300 μg of recombinant SteA or STM AU1 in 1×TBS buffer was diluted into EB to produce a total of volume of 500 μL and incubated with the beads with turning end over end for 90 mins at 4° C. The beads were then washed three times in EB and resuspended in 50 μl of sample buffer for analysis by 12% SDS-PAGE gel and western blotting using an anti-steA monoclonal antibody (C5/2, Maryland Biosciences).

Data set [6] concerns the molecule itself. Put plainly: gel filtration after heating to 75° C. (self-association). The procedure: as §2
For data set [7], the target named is T1, SH3 domain of yeast Sho1p (yeast …). Put plainly: yeast two-hybrid screen, confirmed by interaction mating.
Description: as §1

T1 sequence (P40073 300-367 limits assumed): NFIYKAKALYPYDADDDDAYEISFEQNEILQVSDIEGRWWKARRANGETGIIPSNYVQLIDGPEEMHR

B1: AptA (peptide aptamer A in truncated STM) (designed binder)
chain: MIPWGLSEAKPATPEIQEIVDKVKPQLEEKTNETYGKLEAVQYKTQVDAGTNYYIKVRAGDNKYMHLKVFNGPRLNKPLPSLPV
notes: Scaffold ends at the in-frame stop codon after the 11mer (unconstrained C-terminal peptide); also called PepA; pepA
In the case of B1, in data set [1], the binding result is recorded as “binds”.

B2: Apt124 (peptide aptamer 124 in truncated STM) (designed binder)
chain: MIPWGLSEAKPATPEIQEIVDKVKPQLEEKTNETYGKLEAVQYKTQVDAGTNYYIKVRAGDNKYMHLKVFNGPRGNKPLPALPL
notes: Scaffold ends at the in-frame stop codon after the 11mer
With B2, the binding result in data set [1] is on record as “binds”.

B3: Apt32 (peptide aptamer 032 in truncated STM) (designed binder)
chain: MIPWGLSEAKPATPEIQEIVDKVKPQLEEKTNETYGKLEAVQYKTQVDAGTNYYIKVRAGDNKYMHLKVFNGPLPNKPLPSLPL
notes: Scaffold ends at the in-frame stop codon after the 11mer; also called Pep32
Consider B3, for which, in data set [1], the binding result is “binds”.

B4: AptA* (AptA with the two prolines of the PxxP motif changed to alanines) (designed binder)
chain: MIPWGLSEAKPATPEIQEIVDKVKPQLEEKTNETYGKLEAVQYKTQVDAGTNYYIKVRAGDNKYMHLKVFNGPRLNKPLASLAV
notes: also called AptA PP/AA; AxxA mutation of AptA
B4: in data set [2], the binding result is given as “no binding”.

B5: wild type Stefin A (human, recombinant) (other)
chain: MIPGGLSEAKPATPEIQEIVDKVKPQLEEKTNETYGKLEAVQYKTQVVAGTNYYIKVRAGDNKYMHLKVFKSLPGQNEDLVLTGYQVDKNKDDELTGF
notes: Expressed in E. coli from pET30a(+) with a hexa-histidine tag; also called SteA; Cystatin A
For B5, the binding result in data set [3] is on record as “binds”.

B6: STM (Stefin A Triple Mutant), recombinant, no insert (designed binder)
chain: MIPWGLSEAKPATPEIQEIVDKVKPQLEEKTNETYGKLEAVQYKTQVDAGTNYYIKVRAGDNKYMHLKVFNGPPGQNEDLVLTGYQVDKNKDDELTGF
notes: Expressed in E. coli from pET30a(+) with a hexa-histidine tag; also called STM triple mutant
For B6, the binding result in data set [4] is recorded as “no binding”.

B7: STM comprising target peptide AU1 epitope (designed binder)
chain: MIPWGLSEAKPATPEIQEIVDKVKPQLEEKTNETYGKLEAVQYKTQVDAGTNYYIKVRAGDNKYMHLKVFNGPDTYRYIGPPGQNEDLVLTGYQVDKNKDDELTGF
notes: Expressed in E. coli from pET30a(+) with a hexa-histidine tag; also called STM AU1; STM/AU1
As for B7, the binding result in data set [5] was “no binding (tested: 300 µg)”; in data set [6], “no binding”.

B8: Apt34 (peptide aptamer 034 in truncated STM) (designed binder)
chain: MIPWGLSEAKPATPEIQEIVDKVKPQLEEKTNETYGKLEAVQYKTQVDAGTNYYIKVRAGDNKYMHLKVFNGPSVNKPLPSLPSLPVYGP
notes: Truncated by a frame-shift and an out-of-frame stop codon
For B8, the binding result in data set [1] is “binds”.

B9: Apt94 (peptide aptamer 094 in truncated STM) (designed binder)
chain: MIPWGLSEAKPATPEIQEIVDKVKPQLEEKTNETYGKLEAVQYKTQVDAGTNYYIKVRAGDNKYMHLKVFNGPANKPLPALPALGSAVE
notes: as for B8
Take B9: in data set [1], the binding result is recorded as “binds”.

B10: STM peptide aptamer 03 (designed binder)
chain: MIPWGLSEAKPATPEIQEIVDKVKPQLEEKTNETYGKLEAVQYKTQVDAGTNYYIKVRAGDNKYMHLKVFNGPDLNKPLPALPVHGPPGQNEDLVLTGYQVDKNKDDELTGF
notes: Insert (with its GP ends) constrained in STM; also called Apt03
For the molecule B10, the binding result in data set [7] is recorded as “binds”.

B11: STM peptide aptamer 05 (designed binder)
chain: MIPWGLSEAKPATPEIQEIVDKVKPQLEEKTNETYGKLEAVQYKTQVDAGTNYYIKVRAGDNKYMHLKVFNGPNLNKPLPALPVLGPPGQNEDLVLTGYQVDKNKDDELTGF
notes: Insert (with its GP ends) constrained in STM; also called Apt05; Pep05
Take B11: the binding result in data set [7] is listed as “binds”.

B12: STM peptide aptamer 08 (designed binder)
chain: MIPWGLSEAKPATPEIQEIVDKVKPQLEEKTNETYGKLEAVQYKTQVDAGTNYYIKVRAGDNKYMHLKVFNGPDPNRPLPSLPVTGPYLNKPLPALPVSGPPGQNEDLVLTGYQVDKNKDDELTGF
notes: Insert (with its GP ends) constrained in STM
Take B12: in data set [7], the binding result was “binds”.

B13: STM peptide aptamer 20 (designed binder)
chain: MIPWGLSEAKPATPEIQEIVDKVKPQLEEKTNETYGKLEAVQYKTQVDAGTNYYIKVRAGDNKYMHLKVFNGPRMNKPLPSLPLGGPAMNKPLPALPLQGPPGQNEDLVLTGYQVDKNKDDELTGF
notes: as for B12
On to B13, for which the binding result in data set [7] is listed as “binds”.

B14: STM peptide aptamer 13 (designed binder)
chain: MIPWGLSEAKPATPEIQEIVDKVKPQLEEKTNETYGKLEAVQYKTQVDAGTNYYIKVRAGDNKYMHLKVFNGPYLNKPLPSLPLCGPSVNRPLPALPDVGPPGQNEDLVLTGYQVDKNKDDELTGF
notes: as for B12
Take B14: the binding result in data set [7] is “binds”.

B15: STM peptide aptamer 11 (designed binder)
chain: MIPWGLSEAKPATPEIQEIVDKVKPQLEEKTNETYGKLEAVQYKTQVDAGTNYYIKVRAGDNKYMHLKVFNGPFPNKPLPALPLTGPVLNRPLPPLPRNGPPGQNEDLVLTGYQVDKNKDDELTGF
notes: as for B12
As for B15, the binding result in data set [7] is given as “binds”.

B16: STM peptide aptamer 17 (designed binder)
chain: MIPWGLSEAKPATPEIQEIVDKVKPQLEEKTNETYGKLEAVQYKTQVDAGTNYYIKVRAGDNKYMHLKVFNGPEPNKPLPALPLTGPVLNRPLPPLPRNGPPGQNEDLVLTGYQVDKNKDDELTGF
notes: as for B12
Regarding B16, the binding result in data set [7] is on record as “binds”.

B17: STM peptide aptamer 10 (designed binder)
chain: MIPWGLSEAKPATPEIQEIVDKVKPQLEEKTNETYGKLEAVQYKTQVDAGTNYYIKVRAGDNKYMHLKVFNGPILNKPLPALPLRGPDPNRPLPALPVTGPPGQNEDLVLTGYQVDKNKDDELTGF
notes: as for B12
In the case of B17, the binding result in data set [7] is given as “binds”.

B18: Apt40 (peptide aptamer 040 in truncated STM) (designed binder)
chain: MIPWGLSEAKPATPEIQEIVDKVKPQLEEKTNETYGKLEAVQYKTQVDAGTNYYIKVRAGDNKYMHLKVFNGPVENKPLPALPAVGP
notes: as for B8
For the molecule B18, the binding result in data set [1] is given as “binds”.

Values taken from US20120190819A1 (MEDICAL RESEARCH COUNCIL, published 2012).
